# Measured values as given in patent US20170088624A1 (Janssen / Centocor, published 2017).
# Where a chain is given by its changes, count along the chain named.
# B1: C40M121 (antibody, human IgG1, lambda, V domains shown)
# VH: QLQLQESGPGLVKPSETLSLTCTVSGGSISSSSYYWGWIRQPPGKGLEWIGNIYYRGDTYYSPSLKSRVTISVDTSKNQFSLKLSSVTAADTAVYYCAKGFRFDYWGQGTLVTVSS
# VL: QSALTQPPSASGSPGQSVTISCTGTSSDVGGYNYVSWYQQHPGKAPKLMIYEVSKRPSGVPDRFSGSKSGNTASLTVSGLQAEDEADYYCSSYAGSNNLVFGGGTKLTVLG
# B2: C40M105 (antibody, human IgG1, lambda, V domains shown)
# VH: B1 VH with K99R
# VL: B1 VL
# B3: C40M55 (antibody, human IgG1, kappa, V domains shown)
# VH: QVQLVQSGAEVKKPGSSVKVSCKASGGTFSSYAISWVRQAPGQGLEWMGGIIPIFGTANYAQKFQGRVTITADESTSTAYMELSSLRSEDTAVYYCARDGYRRYGIGRYGFDYWGQGTLVTVSS
# VL: not shown
# notes: Full-length IgG1/kappa; from phage display
# How the values were obtained:
# [1] = biological target: T1, Full length human CD40 (huCD40) on cells (human, UniProt P25942 21-277); experiment: cell-based or functional assay
# Target sequence in this assay (P25942 21-277): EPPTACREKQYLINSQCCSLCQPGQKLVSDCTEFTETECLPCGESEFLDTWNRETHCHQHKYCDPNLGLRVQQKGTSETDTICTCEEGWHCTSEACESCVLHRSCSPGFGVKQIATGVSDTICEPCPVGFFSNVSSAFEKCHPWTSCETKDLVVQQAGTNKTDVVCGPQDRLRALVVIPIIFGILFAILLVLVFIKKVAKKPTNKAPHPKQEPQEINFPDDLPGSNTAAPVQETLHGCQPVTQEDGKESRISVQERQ
# [2] = biological target: T1, Full length human CD40 (huCD40) on cells; experiment: flow cytometry, human DCs; separate experiment
# Target sequence in this assay (P25942 21-277): as above
# [3] = biological target: T1, Full length human CD40 (huCD40) on cells; experiment: flow cytometry, human B cells; separate experiment
# Target sequence in this assay (P25942 21-277): as above
# [4] = biological target: T1, Full length human CD40 (huCD40) on cells; experiment: flow cytometry, HEK-Blue CD40L cells; separate experiment
# Target sequence in this assay (P25942 21-277): as above
# [5] = biological target: T1, Full length human CD40 (huCD40) on cells; experiment: flow cytometry, human DCs
# Target sequence in this assay (P25942 21-277): as above
# [6] = biological target: T1, Full length human CD40 (huCD40) on cells; experiment: flow cytometry, human B cells
# Target sequence in this assay (P25942 21-277): as above
# [7] = biological target: T1, Full length human CD40 (huCD40) on cells; experiment: flow cytometry, HEK-Blue CD40L cells
# [8] = biological target: T1, Full length human CD40 (huCD40) on cells; experiment: cell-based or functional assay; remark: listed apart in the source
# [9] = biological target: T1, Full length human CD40 (huCD40) on cells; experiment: cell-based or functional assay; remark: listed apart in the source
# [10] = biological target: T1, Full length human CD40 (huCD40) on cells; experiment: flow cytometry, Raji cells
# [11] = biological target: T2, Macaca fascicularis (cyno) CD40 (cCD40) on cells (Macaca fascicularis (cynomolgus), UniProt P25942 21-277 (human entry)); experiment: flow cytometry, cyno mature DCs
# T2 construct: CD40 on cyno mature DCs
# T2 chain: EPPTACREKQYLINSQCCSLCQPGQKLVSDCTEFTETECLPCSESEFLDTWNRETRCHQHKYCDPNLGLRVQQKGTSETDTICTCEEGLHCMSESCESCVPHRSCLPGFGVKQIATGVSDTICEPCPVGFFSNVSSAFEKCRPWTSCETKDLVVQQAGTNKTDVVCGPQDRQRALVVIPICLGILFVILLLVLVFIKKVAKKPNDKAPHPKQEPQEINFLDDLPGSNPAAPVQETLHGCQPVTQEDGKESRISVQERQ
# Experimental: (§1) Human monocytes were isolated from either frozen/fresh PBMC using CD14 negative isolation kit per manufacturer's protocol (MACS Miltenyi). Cyno monocytes were isolated from fresh PBMC using CD14 positive isolation kit per manufacturer's protocol (MACS Miltenyi). To generate DCs, monocytes were cultured for 5 days in complete media RPMI (Invitrogen) in the presence of 100 ng/ml human GM-CSF and human IL-4 (Peprotech) and media was replenished every 2 days. On day 5, DCs were stimulated with 100 ng/ml LPS (Sigma) for 24 hours. Cells were then stained with each of the tested CD40 antibody at different concentration in flow cytometry buffer (PBS+1% FBS; BD Bioscience) in 100 μl volume for 30 minutes on ice followed with two washes with flow buffer. Cells were then stained for additional 30 minutes on ice with APC-conjugated anti human IgG (Jackson ImmunoResearch) at the recommended dilution 1:100 and washed twice with flow buffer. Cells were analyzed for percent positive and Mean Fluorescence Intensity (MFI) to determine the antibody binding using Fortessa (BD Bioscience).
# (§2) The experiments were conducted using assays described above. 20 antibodies were characterized further based on their binding to human DCs, cyno DCs, Raji cells and HEK-Blue™ CD40L cells.
# [12] = biological target: T1, Full length human CD40 (huCD40) on cells; experiment: flow cytometry, human mature DCs
# Experimental: as §1, §2
# [13] = biological target: T1, Full length human CD40 (huCD40) on cells; experiment: flow cytometry, HEK-Blue CD40L cells; remark: listed apart in the source
# human CD40 (SPR analyte) [14] = biological target: T3, human CD40 (SPR analyte) (human, UniProt P25942 21-193); experiment: SPR ProteOn XPR36, mAb captured, CD40 as analyte, 25 C; lower end of the range of n = 2
# T3 construct: also called huCD40-ECD
# Experimental: (§3) Affinity measurements were performed using Surface Plasmon Resonance (SPR) using a ProteOn XPR36 system (BioRad). […] Approximately 5000 RU (response units) of mAbs were immobilized. The kinetic experiments were performed at 25° C. in running buffer (DPBS+0.01% P20+100 μg/ml BSA). To perform kinetic experiments, 200 RU of mAbs were captured followed by injections of analytes (human or cyno CD40) at 5 concentrations (in a 4-fold serial dilution). The association phase was monitored for 3 minutes at 50 μL/min, then followed by 15 minutes of buffer flow (dissociation phase). The chip surface was regenerated with two 18 second pulses of 100 mM H₃PO₄ (Sigma, Cat#7961) at 100 μL/min.
# (§4) The collected data were processed using ProteOn Manager software. First, the data was corrected for background using inter-spots. Then, double reference subtraction of the data was performed by using the buffer injection for analyte injections. The kinetic analysis of the data was performed using a Langmuir 1:1 binding model. The result for each mAb was reported in the format of Ka (On-rate), Kd (Off-rate) and KD (equilibrium dissociation constant).
# (§5) The parameters reported in this table were obtained from a 1:1 Langmuir binding model for all samples. Affinity, KD=kd/ka.
# human CD40 (SPR analyte) [15] = biological target: T3, human CD40 (SPR analyte); experiment: SPR ProteOn XPR36, mAb captured, CD40 as analyte, 25 C; upper end of the range of n = 2
# Experimental: as §3, §4, §5
# cyno CD40 (SPR analyte) = biological target: T4, cyno CD40 (SPR analyte) (Macaca fascicularis (cynomolgus), UniProt P25942 21-193 (human entry), limits assumed); experiment: SPR ProteOn XPR36, mAb captured, cyno CD40 as analyte, 25 C; did not fit well to 1:1 model
# T4 construct: also called cCD40-ECD
# T4 chain: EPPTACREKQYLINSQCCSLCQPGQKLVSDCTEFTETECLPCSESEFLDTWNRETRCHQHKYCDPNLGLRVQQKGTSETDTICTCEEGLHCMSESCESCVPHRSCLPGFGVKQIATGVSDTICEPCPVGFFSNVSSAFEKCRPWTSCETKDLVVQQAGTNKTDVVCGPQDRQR
# Experimental: as §3, §4, §5
# human CD40 (SPR analyte) [16] = biological target: T3, human CD40 (SPR analyte); experiment: SPR ProteOn XPR36, mAb captured, CD40 as analyte, 25 C; average of n = 2; did not fit well to 1:1 model
# Experimental: as §3, §4, §5
# human CD40 (SPR analyte) [17] = biological target: T3, human CD40 (SPR analyte); experiment: SPR ProteOn XPR36, mAb captured, CD40 as analyte, 25 C; lower end of the range of n = 2; lower end of the range of the n = 2 replicates
# Experimental: as §3, §4, §5
# human CD40 (SPR analyte) [18] = biological target: T3, human CD40 (SPR analyte); experiment: SPR ProteOn XPR36, mAb captured, CD40 as analyte, 25 C; upper end of the range of n = 2; upper end of the range of the n = 2 replicates
# Experimental: as §3, §4, §5
binder,measurement,setting,value
B1,"EC50, Human B cells (CD83), separate experiment",[1],0.000334 µg/mL
same,"EC50, Human DC (HLA-DR), separate experiment",[1],0.0185 µg/mL
same,"EC50, agonistic activity on HEK-Blue™ CD40L cells (NF-κB/SEAP), separate experiment",[1],0.00633 µg/mL
same,EC50,[2],0.0572 µg/mL
same,EC50,[3],0.0228 µg/mL
same,EC50,[4],0.464 µg/mL
B2,"EC50, Human B cells (CD83)",[1],0.00282 µg/mL
same,"EC50, Human DC (HLA-DR)",[1],2.97 µg/mL
same,"EC50, agonistic activity on HEK-Blue™ CD40L cells (NF-κB/SEAP)",[1],0.0173 µg/mL
same,EC50,[5],5.76 µg/mL
same,EC50,[6],6.65 µg/mL
same,EC50,[7],2.16 µg/mL
B3,"B cells EC50, CD23 surface expression, with cross-linker",[8],0.0616 µg/mL
same,"B cells EC50, CD80 surface expression, with cross-linker",[8],0.00143 µg/mL
same,"B cells EC50, CD83 surface expression, with cross-linker",[8],0.00125 µg/mL
same,"B cells EC50, CD86 surface expression, with cross-linker",[8],0.000646 µg/mL
same,"B cells EC50, HLA-DR surface expression, with cross-linker",[8],0.000437 µg/mL
same,"DC EC50, CD80 surface expression, with cross-linker",[9],0.0616 µg/mL
same,"DC EC50, CD83 surface expression, with cross-linker",[9],0.103 µg/mL
same,"DC EC50, CD86 surface expression, with cross-linker",[9],0.198 µg/mL
same,"DC EC50, HLA-DR surface expression, with cross-linker",[9],0.0811 µg/mL
same,EC50,[10],0.0461 µg/mL
same,EC50,[11],0.0218 µg/mL
same,EC50,[12],0.102 µg/mL
same,EC50,[13],0.0631 µg/mL
same,Kd,human CD40 (SPR analyte) [14],2.12 nM
same,Kd,human CD40 (SPR analyte) [15],2.17 nM
same,Kd,cyno CD40 (SPR analyte),2.59 nM
same,koff,cyno CD40 (SPR analyte),0.00215 s⁻¹
same,kon,cyno CD40 (SPR analyte),831000 M⁻¹ s⁻¹
same,Kd,human CD40 (SPR analyte) [16],2.15 nM
same,koff,human CD40 (SPR analyte) [16],0.00203 s⁻¹
same,kon,human CD40 (SPR analyte) [16],944000 M⁻¹ s⁻¹
same,koff,human CD40 (SPR analyte) [17],0.00188 s⁻¹
same,kon,human CD40 (SPR analyte) [17],868000 M⁻¹ s⁻¹
same,koff,human CD40 (SPR analyte) [18],0.00217 s⁻¹
same,kon,human CD40 (SPR analyte) [18],1.02e+06 M⁻¹ s⁻¹
